Results on one molecule are retold here after patent US20210047427A1 (Takeda / Millennium, published 2021).

The experiment has as its target T1, cynomolgus CD38 (cynomolgus monkey, UniProt Q5VAN0 1-301).
T1 construct: In the assays it is native CD38 on cynomolgus monkey blood lymphocytes; also called cyno CD38; monkey CD38
Put plainly: Flow cytometry of cynomolgus monkey whole blood stained with labelled AB79. MFI converted to MOEF with Rainbow Beads. NK (CD3-, CD159a+), B (CD3-, CD20+) and T (CD3+) cells; 3 individuals, mean with SD. A general note: A flow cytometer gives signals particle by particle.

T1 sequence (Q5VAN0 whole entry): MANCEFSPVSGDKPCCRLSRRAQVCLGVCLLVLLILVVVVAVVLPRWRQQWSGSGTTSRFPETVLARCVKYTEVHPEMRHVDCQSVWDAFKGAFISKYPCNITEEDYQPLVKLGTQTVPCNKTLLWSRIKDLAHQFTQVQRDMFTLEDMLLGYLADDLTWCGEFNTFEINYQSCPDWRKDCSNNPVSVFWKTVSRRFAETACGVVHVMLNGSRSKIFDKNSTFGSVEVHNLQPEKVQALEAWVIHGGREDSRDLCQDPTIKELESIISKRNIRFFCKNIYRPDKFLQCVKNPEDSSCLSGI
Experimental: The flow cytometric measurements were standardized and the signals are reported in molecules of equivalent soluble fluorescence (MOEF). […] Direct comparison of CD38 expression levels on monkey NK cells (CD3−, CD159a+), B cells (CD3−, CD20+) and T cells (CD3+) and human NK cells (CD3−, CD16/CD56+), B cells (CD3−, CD19+) and T cells (CD3+) were evaluated by flow cytometry.
An aliquot of blood (100 μL) was mixed with appropriate volume of antibody (FIG. 1) and incubated for 15-20 minutes at RT in the dark. After incubation, 1 mL of BD FACS lyse (1×; BD Biosciences; San Jose, Calif.) was added to lyse red blood cells and the cells incubated for 10 minutes at RT in the dark, then centrifuged, decanted and resuspended in 1 mL of staining buffer with bovine serum albumin (BD Biosciences).

B1: AB79 (antibody, human IgG1, lambda, V domains shown)
VH: EVQLLESGGGLVQPGGSLRLSCAASGFTFDDYGMSWVRQAPGKGLEWVSDISWNGGKTHYVDSVKGQFTISRDNSKNTLYLQMNSLRAEDTAVYYCARGSLFHDSSGFYFGHWGQGTLVTVSS
VL: QSVLTQPPSASGTPGQRVTISCSGSSSNIGDNYVSWYQQLPGTAPKLLIYRDSQRPSGVPDRFSGSKSGTSASLAISGLRSEDEADYYCQSYDSSLSGSVFGGGTKLTVLG
For the molecule B1, the binding result is reported as “binds”.
